Patent US10350168B2, “Dermal delivery compositions comprising active agent-calcium phosphate particle complexes and methods of using the same” (Laboratory Skin Care, Inc., priority 2009, dated 2019)

Assay: Lactoferrin binding to calcium phosphate particles (UV 280 nm)
Assay type: physicochemical
Conditions: binding concentration of 2.99 mg/ml
Procedure: • Calcium phosphate particles • Lactoferrin from human milk, Sigma Aldrich, Catalog No. 0520-100MG Methods: • i. Lactoferrin solution was prepared in water at 4.98 mg/ml. • ii. 0.3 g of Calcium phosphate particles was suspended in 1.2 ml of water and mixed for 5 min. • iii. 1.8 ml of Lactoferrin solution at 4.98 mg/ml was added to achieve the final concentrations at 3.0 mg/ml, and the final volume was 3 ml. • iv. The suspension was mixed for 30 min, and centrifuged at 5000×g for 10 min in a bench top centrifuge. • v. The absorbance of supernatant was measured at 280 nm (the detection wavelength for Lactoferrin) by UV spectrophotometer. • vi. […] Lactoferrin bound was calculated by subtracting the amount of the Lactoferrin detected in the supernatant from the total initial amount in the binding suspension.

B1: Lactoferrin: Lactoferrin from human milk, Sigma Aldrich (protein, UniProt P02788 20-710, looked up)
Lactotransferrin: GRRRSVQWCAVSQPEATKCFQWQRNMRKVRGPPVSCIKRDSPIQCIQAIAENRADAVTLDGGFIYEAGLAPYKLRPVAAEVYGTERQPRTHYYAVAVVKKGGSFQLNELQGLKSCHTGLRRTAGWNVPIGTLRPFLNWTGPPEPIEAAVARFFSASCVPGADKGQFPNLCRLCAGTGENKCAFSSQEPYFSYSGAFKCLRDGAGDVAFIRESTVFEDLSDEAERDEYELLCPDNTRKPVDKFKDCHLARVPSHAVVARSVNGKEDAIWNLLRQAQEKFGKDKSPKFQLFGSPSGQKDLLFKDSAIGFSRVPPRIDSGLYLGSGYFTAIQNLRKSEEEVAARRARVVWCAVGEQELRKCNQWSGLSEGSVTCSSASTTEDCIALVLKGEADAMSLDGGYVYTAGKCGLVPVLAENYKSQQSSDPDPNCVDRPVEGYLAVAVVRRSDTSLTWNSVKGKKSCHTAVDRTAGWNIPMGLLFNQTGSCKFDEYFSQSCAPGSDPRSNLCALCIGDEQGENKCVPNSNERYYGYTGAFRCLAENAGDVAFVKDVTVLQNTDGNNNEAWAKDLKLADFALLCLDGKRKPVTEARSCHLAMAPNHAVVSRMDKVERLKQVLLHQQAKFGRNGSDCPDKFCLFQSETKNLLFNDNTECLARLHGKTTYEKYLGPQYVAGITNLKKCSTSPLLEACEFLRK
Lactoferrin bound to calcium phosphate particles: 29.63 mg/g
